Patent US20230144459A1 (published 2023)
Where no end group is shown, it is not given here.

Molecular target: T1, BSA conjugated CD28 stalk region dimeric peptide (also: dimer, conjugated to BSA via C-terminal Lys)
T1 peptide: GKHLCPSPLFPGPSKPK
Experiment: ELISA

IC50: 9 ng/mL
B1: antibody M9 (antibody, V domains shown)
VH: DVKLVESGGGLVKLGGSLKLSCVASGFTFSSYYMSWVRQTPEKRLEWVATISDGGDNTYYAGTVTGRFTISRDFAKNTLYLQMNSLTSEDTAVYYCARIHWPYYFDSWGQGTTLTVSS
VL: QFVLSQSPAILSASPGEMLTMTCRASSSVSYMNWYQQKPGSSPKPWIYATSDLASGVPARFSGSGSGTSYSLTISRVEAEDAATYYCQQWSSHPPTFGGGTKLEIR
